Publication doi:10.1101/2022.08.19.504623
Values joined by “and” are separate entries in the source; they are usually repeats but may differ in a detail not shown here. Identical values can stand only once.

What was measured:
[1] = molecular target: FlaK D236A with a C-terminal His6-tag (Vibrio alginolyticus); test: cross-linking
[2] = molecular target: FlaK E237Q with a C-terminal His6-tag (Vibrio alginolyticus); test: cross-linking
[3] = molecular target: FlaK I365E with a C-terminal His6-tag (Vibrio alginolyticus); test: SEC
[4] = molecular target: FlaK I365E with a C-terminal His6-tag (Vibrio alginolyticus); test: cross-linking
[5] = molecular target: FlaK K171A with a C-terminal His6-tag (Vibrio alginolyticus); test: cross-linking + SEC
[6] = molecular target: FlaK K171A with a C-terminal His6-tag (Vibrio alginolyticus); test: SEC
[7] = molecular target: FlaK K171A with a C-terminal His6-tag (Vibrio alginolyticus); test: cross-linking
[8] = molecular target: FlaK L371E with a C-terminal His6-tag (Vibrio alginolyticus); test: cross-linking
[9] = molecular target: FlaK Q140E with a C-terminal His6-tag (Vibrio alginolyticus); test: cross-linking
[10] = molecular target: FlaK, wild type, with a C-terminal His6-tag (Vibrio alginolyticus); test: cross-linking + SEC
[11] = molecular target: FlaK, wild type, with a C-terminal His6-tag (Vibrio alginolyticus); test: SEC
[12] = molecular target: FlaK, wild type, with a C-terminal His6-tag (Vibrio alginolyticus); test: cross-linking

Substance “FlaK D236A with a C-terminal His6-tag (natural protein)” has a stoichiometry N [1] of 2.

“FlaK E237Q with a C-terminal His6-tag (natural protein)” showed a stoichiometry N [2] of 2.

With “FlaK I365E with a C-terminal His6-tag (natural protein)” the stoichiometry N [3] was 2 and the stoichiometry N [4] was 2.

With “FlaK K171A with a C-terminal His6-tag (natural protein)” the stoichiometry N [5] was 4 and 6, the stoichiometry N [6] was 2 and the stoichiometry N [7] was 2.

Substance “FlaK L371E with a C-terminal His6-tag (natural protein)” has a stoichiometry N [8] of 2.

With “FlaK Q140E with a C-terminal His6-tag (natural protein)” the stoichiometry N [9] was 2.

With “FlaK, wild type, with a C-terminal His6-tag (natural protein)” the stoichiometry N [10] was 4 and 6, the stoichiometry N [11] was 2 and the stoichiometry N [12] was 2.
